Columns and labels:
[1] = target: T1, Acro S1 spike protein (SARS-CoV-2) (SARS-CoV-2, UniProt P0DTC2 16-685); assay: SPR (Carterra LSA)
[2] = target: T2, S1 variant B.1.1.7: UK (Acro) spike protein (SARS-CoV-2, UniProt P0DTC2 16-1213); assay: SPR (Carterra LSA)
[3] = target: T3, C52Hk S. African variant (Acro) spike protein (SARS-CoV-2, UniProt P0DTC2 16-1213); assay: SPR (Carterra LSA)
[4] = target: T4, C52Hg Brazilian variant (Acro) spike protein (SARS-CoV-2, UniProt P0DTC2 16-1213); assay: SPR (Carterra LSA)
[5] = target: T2, S1 variant B.1.1.7: UK (Acro) spike …; assay: SPR (Carterra LSA); […]; 1:1 model; […]
[6] = target: T4, C52Hg Brazilian variant (Acro) spike …; assay: SPR (Carterra LSA); […]; 1:1 model; […]
[7] = target: T2, S1 variant B.1.1.7: UK (Acro) spike …; assay: SPR (Carterra LSA); antibody on chip, spike protein as analyte; summary table
[8] = target: T4, C52Hg Brazilian variant (Acro) spike …; assay: as above
[9] = target: T1, Acro S1 spike protein (SARS-CoV-2); assay: SPR (Carterra LSA); […]; 1:1 model; […]
[10] = target: T1, Acro S1 spike protein (SARS-CoV-2); assay: SPR (Carterra LSA); antibody on chip, spike protein as analyte; summary table
[11] = target: T3, C52Hk S. African variant (Acro) spike …; assay: SPR (Carterra LSA); […]; 1:1 model; […]
[12] = target: T3, C52Hk S. African variant (Acro) spike …; assay: SPR (Carterra LSA); antibody on chip, spike protein as analyte; summary table

| Binder | binding result [1] | binding result [2] | binding result [3] | binding result [4] | Kd [9] | koff [9] | kon [9] | Kd [10] | also measured |
| --- | --- | --- | --- | --- | --- | --- | --- | --- | --- |
| Antibody 1-20 (Fc fusion) EVQLVESGGGLVQPGGSLRLSCAASGRTFRRYTMGWFRQAPGKEREFVASITSSGVNAYADSVKGRFTISADNSKNTAYLQMNSLKPEDTAVYYCAKEDVGKPFDWGQDTLVTVSS | no binding | no binding | no binding | no binding |  |  |  |  |  |
| Antibody 1-16 (Fc fusion) EVQLVESGGGLVQPGGSLRLSCAASGRTYAMGWFRQAPGKERELVAEITAGGSTYYADSVKGRFTISADNSKNTAYLQMNSLKQEDTAVYYCAVDGPFGWGQGTLVTVSS |  |  |  |  |  |  |  |  | Kd [5]: 1.06 nM; koff [5]: 0.00037 s⁻¹; kon [5]: 350000 M⁻¹ s⁻¹; Kd [6]: 4.79 nM; koff [6]: 0.0034 s⁻¹; kon [6]: 710000 M⁻¹ s⁻¹; Kd [7]: 1.06 nM; Kd [8]: 4.79 nM |
| Antibody 1-13 (Fc fusion) EVQLVESGGGLVQPGGSLRLSCAASGRTTFSSYTMGWFRQAPGKEREFVASITRSGVLNYADSVKGRFTISADNSKNTAYLQMNSLKPEDTAVYYCAKEDVGKPFDWGQGTLVTVSS |  |  |  |  | 18.2 nM | 0.0031 s⁻¹ | 170000 M⁻¹ s⁻¹ | 18.2 nM | Kd [5]: 5.18 nM; koff [5]: 0.00088 s⁻¹; kon [5]: 170000 M⁻¹ s⁻¹; Kd [7]: 5.18 nM |
| Antibody 1-17 (Fc fusion) EVQLVESGGGLVQPGGSLRLSCAASGRTIVPYTMGWFRQAPGKEREEVAAISTGGGGTYYADSVKGRFTISADNSKNTAYLQMNSLKPEDTAVYYCAVDGPFGWGQGTLVTVSS |  |  |  |  | 5.15 nM | 0.0017 s⁻¹ | 330000 M⁻¹ s⁻¹ | 5.15 nM |  |
| Antibody 1-6 (Fc fusion) EVQLVESGGGLVQPGGSLRLSCAASGSISSINVMGWFRQAPGKEREWMGVMAYDGSTYYADSVKGRFTISADNSKNTAYLQMNSLKPEDTAVYYCAAFDGYSGSDWGQGTLVTVSS | no binding | no binding | no binding | no binding |  |  |  |  |  |
| Antibody 1-3 (Fc fusion) EVQLVESGGGLVQPGGSLRLSCAASGTTFRINVMGWFRQAPGKEREFVAGISWTGGSTIYADSVKGRFTISADNSKNTAYLQMNSLKPEDTAVYYCAAFDGYSGSDWGQGTLVTVSS | no binding | no binding | no binding | no binding |  |  |  |  |  |
| Antibody 1-11 (Fc fusion) EVQLVESGGGLVQPGGSLRLSCAASGFTFDDYVMGWFRQAPGKEREFVAVISWTGESTLYADSVKGRFTISADNSKNTAYLQMNSLKPEDTAVYYCAAFDGYSGSDWGQGTLVTVSS |  |  |  |  |  |  |  |  | Kd [11]: 5 nM; koff [11]: 0.0019 s⁻¹; kon [11]: 380000 M⁻¹ s⁻¹; Kd [6]: 4.67 nM; koff [6]: 0.0014 s⁻¹; kon [6]: 300000 M⁻¹ s⁻¹; Kd [12]: 5 nM; Kd [8]: 4.67 nM |
| Antibody 1-21 (Fc fusion) EVQLVESGGGLVQPGGSLRLSCAASGPTFSIYAMGWFRQAPGKERELVAGISWNGGSTNYADSVKGRFTISADNSKNTAYLQMNSLKPEDTAVYYCAAFDGYTGSDWGQGTLVTVSS | no binding | no binding | no binding | no binding |  |  |  |  |  |
| Antibody 1-2 (Fc fusion) EVQLVESGGGLVQPGGSLRLSCAASGGSEYSYSTFSSFVMGWFRQAPGKERELVASISWSGGHTFYADSVKGRFTISADNSKNTAYLQMNSLKPEDTAVYYCAAYLRGPYYSSFYDSTKYEWGQGTLVTVSS |  |  |  |  | 2.41 nM | 0.00053 s⁻¹ | 220000 M⁻¹ s⁻¹ | 2.41 nM |  |

From patent US20230192819A1 (TWIST BIOSCIENCE, published 2023)
